1 molecule from paper PMC5749160, “Disruption of an RNA-binding hinge region abolishes LHP1-mediated epigenetic repression” can be followed below.

Where a chain is given by its changes, count along the chain named.

Holding throughout (conditions): protein: recombinant; tags: N-terminal GST (pGEX-4T-1); label: 5' Cy5; single-stranded
One series deals with T1, GST-LHP1 KR33A (Arabidopsis thaliana (Col-0 cDNA), UniProt Q946J8 1-445, R166A;K167A;R168A;K169A;R170A;K171A;K180A;K181A;K182A;R184A;K195A;R224A;K229A;R2 …).
T1 sequence: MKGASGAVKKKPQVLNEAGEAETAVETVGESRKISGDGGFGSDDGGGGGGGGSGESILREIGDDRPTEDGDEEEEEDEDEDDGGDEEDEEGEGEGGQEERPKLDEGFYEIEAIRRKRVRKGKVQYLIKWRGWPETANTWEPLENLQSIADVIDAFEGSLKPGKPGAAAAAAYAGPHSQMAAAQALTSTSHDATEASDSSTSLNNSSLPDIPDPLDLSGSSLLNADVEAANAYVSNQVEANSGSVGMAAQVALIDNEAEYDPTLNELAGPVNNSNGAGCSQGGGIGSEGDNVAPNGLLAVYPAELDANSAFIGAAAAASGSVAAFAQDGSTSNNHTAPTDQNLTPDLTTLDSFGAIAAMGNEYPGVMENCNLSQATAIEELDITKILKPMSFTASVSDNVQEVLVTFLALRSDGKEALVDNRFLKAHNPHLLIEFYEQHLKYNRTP
The series can be described thus: EMSA; EMSA: 20 mM HEPES-KOH pH 7.5, 100 mM KCl, 0.05% NP-40, 10 nM Cy5 probe (1 uL of 100 nM + 9 uL protein), 30 min room temperature; 1.6% TBE-agarose gel.

Another series has as its target T2, GST-LHP1 KR23A (Arabidopsis thaliana (Col-0 cDNA), UniProt Q946J8 1-445, R166A;K167A;R168A;K169A;R170A;K171A;K180A;K181A;K182A;R184A;K195A;R292A;K298A;K3 …).
T2 sequence: T1 sequence with A224R, A229K, A248R, A251R, A257K, A267R, A354R, A357R, A374K, A376K
Described as above.

The next series has as its target T3, GST-LHP1 W129C (Arabidopsis thaliana (Col-0 cDNA), UniProt Q946J8 1-445, W129C).
T3 sequence: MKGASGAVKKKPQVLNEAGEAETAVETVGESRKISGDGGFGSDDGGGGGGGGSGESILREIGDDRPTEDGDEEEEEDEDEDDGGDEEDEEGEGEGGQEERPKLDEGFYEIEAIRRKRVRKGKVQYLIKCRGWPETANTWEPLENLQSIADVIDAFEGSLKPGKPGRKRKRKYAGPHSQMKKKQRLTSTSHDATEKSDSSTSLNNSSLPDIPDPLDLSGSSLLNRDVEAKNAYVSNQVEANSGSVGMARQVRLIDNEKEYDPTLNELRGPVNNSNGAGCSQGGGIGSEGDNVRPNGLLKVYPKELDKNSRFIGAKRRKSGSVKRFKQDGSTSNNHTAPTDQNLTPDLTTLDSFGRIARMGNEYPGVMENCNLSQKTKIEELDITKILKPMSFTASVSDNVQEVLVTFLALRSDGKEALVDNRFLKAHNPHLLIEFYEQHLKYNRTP
The series can be described thus: EMSA; wild-type RNA-binding activity retained; EMSA: 20 mM HEPES-KOH pH 7.5, 100 mM KCl, 0.05% NP-40, 10 nM Cy5 probe (1 uL of 100 nM + 9 uL protein), 30 min room temperature; 1.6% TBE-agarose gel.

Consider CUCCUCCGGCGAUAAGUACGCCUUUUCCUUACCUGGGUUU (ssRNA) [FLC 40-nt ssRNA], for which the results for the binding result with GST-LHP1 KR33A, in the series with GST-LHP1 KR23A and with GST-LHP1 W129C were “no binding”, “no binding” and “binds”, respectively.
